US20250121002A1 (NOILE IMMUNE BIOTECH, published 2025)

Molecular target: T1, recombinant EGFRviii protein (UniProt P00533 25-645)
T1 construct: EGFRviii is a deletion variant of it; The construct is not described
Assay: flow cytometry; CAR-T cells stained with recombinant EGFRviii protein
Description: CytoFLEX S (manufactured by Beckman Coulter, Inc.) was used as the flow cytometer, and FlowJo software (manufactured by Tree Star, Inc.) was used for data analysis.

B1: third generation anti-EGFRviiiCAR with scFv S#026 VL25VH (SG) of the 1B10-1A12 clone, on PRIME EGFRviii CAR-T cells (other)
chain: DVVMTQTPLSLPVSLEDQASISCRSSQSLVHSSGKTYLQWYLQKPGQSPKLLIYSVSNRFSGVPDRFSGSGSGRDFTLKISRVEAEDLGVYFCSQSTHVPWTFGGGTKLEIKSSADDAKKDAAKKDDAKKDDAKKDGQVTLKESGPGILQPSQTLSLTCSFSGFSLSTSGMGVSWIRQPSGKGLEWLAHIFWDDDKRYNPSLKSRLTISKDTSTNQVFLKITSVDTADTATYYCARNYGFDVWGAGTTVTVSS
notes: also called PRIME EGFRviii CAR-T cells based on the 1B10-1A12 clone; not shown: rest of the third generation CAR: human CD8 transmembrane region and human CD28-4-1BB-CD3zeta intracellular signal trans
  flow cytometer measurement result (percent of cells stained with recombinant EGFRviii protein): 32.4%

B2: anti-EGFRviiiCAR with VL25VH (SG) type scFv based on the 2H9-1B5 clone, on PRIME EGFRviii CAR-T cells (other)
chain: DVVVTQTPLSLPVSLEDQASISCRSSRSLVHSSGKTYLQWYLQKPGQSPKLLIYSVSNRFSGVPDRFSGSGSGRDFTLKINRVEAEDLGVYFCSQSTHVPWTFGGGTKLEIKSSADDAKKDAAKKDDAKKDDAKKDGQVTLKESGPGILQPSQTLSLTCSLSGFSLSTSGMGVSWIRQPSGKGLEWLAHIYWDDDTRYNPSLKRRLTISKDTSTNQVFLKITSVDTADTATYYCARNYGFDVWGAGTTVTVSS
notes: also called PRIME EGFRviii CAR-T cells based on the 2H9-1B5 clone; not shown: rest of the CAR, produced 'in a manner similar to that based on the 1B10-1A12 clone' (third generation: CD8 transmembran)
  flow cytometer measurement result (percent of cells stained with recombinant EGFRviii protein): 3.6%

B3: anti-EGFRviiiCAR with VL25VH (SG) type scFv based on the 3C2-1B10 clone, on PRIME EGFRviii CAR-T cells (other)
chain: DVVVTQTPLSLPVSLGDQASISCRSSQSLVHSSGITYLQWYLQKPGQSPKLLIYKVSTRFSGVPDRFSGSGSGTDFTLRISRVEAEELGVYFCSQSTHIPWTFGGGTKLEIKSSADDAKKDAAKKDDAKKDDAKKDGQVTLKESGPGILQPSQTLSLACSFSGFSLSTSGMGVSWIRQPSGKGLEWLAHIYWDDDRRYNPSLKSRLTISRDTSSNQVFLRITSVDTADTATYYCARNYGFDVWGAGTTVTVSS
notes: also called PRIME EGFRviii CAR-T cells based on the 3C2-1B10 clone; not shown: rest of the CAR, produced 'in a manner similar to that based on the 1B10-1A12 clone' (third generation: CD8 transmembran)
  flow cytometer measurement result (percent of cells stained with recombinant EGFRviii protein): 1.4%
